The results in this text go back to publication PMC6768651, “A ubiquitin-like domain controls protein kinase D dimerization and activation by trans-autophosphorylation” (The Journal of Biological Chemistry, 2019).

Substitutions are numbered along the chain they refer to. Names and notes keep the numbering of the source.

The chains are these.
B1: DKF-1 ULD (DKF-1^1–94) [C. elegans] / Atto488-labeled DKF-1 ULD^R42C [modified: Atto488 (maleimide-conjugated) on cysteine 42; Atto488 (maleimide-conjugated) on cysteine 42] [C. elegans] (parent complex)
chain 1: MDGSQGSTDYGDHVVLRYGGTREMVPLIRHEQMLDMLMERARQIVQGFGNLDTRNMYLFRHEYNSPTLLYPITSASQITSGSILEIILVDRTEA
chain 2: B1 chain 1 with R42C

The variants in this experiment derive from B1. Put plainly: fluorescence anisotropy; highest titration point: ULD F59E about 27 µM; parent value is the highest ULD WT point, about 20 µM; parent: 0.024; read off a plot. Background: Polarisation of emitted light reports the rotation of a fluorescent probe.
On to chain 1 F59E, for which the response was approximately 0.003.
